Assays:
[1] = biological target: E-domain of gephyrin (residues 309-750, P1 variant); test: ITC
[2] = biological target: GST fusion of the intracellular domain of the GABAAR α5 subunit; test: far-Western, overlay or dot blot
[3] = biological target: GST fusion of the intracellular loop of the GABAAR α2 subunit; test: far-Western, overlay or dot blot
GST-α1 T375A (mouse) = GST-α1 T375A (mouse) (UniProt P62812); test: far-Western, overlay or dot blot
GST-α1 T375D (mouse) = GST-α1 T375D (mouse) (UniProt P62812); test: far-Western, overlay or dot blot
GST-α1 T375E (mouse) = GST-α1 T375E (mouse) (UniProt P62812); test: far-Western, overlay or dot blot

Row | Kd [1] [µM] | stoichiometry N [1] | gephyrin binding, % of control [2] | gephyrin binding, % of GST-α1 [3] | gephyrin binding, % of control (GST-α1 T375A (mouse)) | gephyrin binding normalised to GST-α1 (100%) (GST-α1 T375D (mouse)) [%] | gephyrin binding normalised to GST-α1 (100%) (GST-α1 T375E (mouse)) [%] | dH [1] [kcal/mol] | Substance
1 | 17 | 0.62 |  |  |  |  |  |  | 6-His-tagged GABAAR α1 cytoplasmic loop (M3-M4), wild type (domain or fragment)
2 |  |  | 12.9 % of control | 43.7 % of GST-α1 | 109 % of control | 68.9 | 62.5 |  | 35S-methionine-labelled gephyrin, P1 isoform (natural protein)
3 | 36 | 0.64 |  |  |  |  |  | -15 | 6-His-tagged GABAAR α1 T375A cytoplasmic loop (domain or fragment)
4 | 183 | 0.69 |  |  |  |  |  |  | 6-His-tagged GABAAR α1 T375E cytoplasmic loop (domain or fragment)
